Assay results as given in US20090232811A1.

Molecular target: recombinant human ANGPT2 (full-length ANGPT2-His protein, R&D Systems) (human) (UniProt O15123)
Experiment: cellular FACS IGF-1R-ANGPT2 bridging assay on I24 cells with purified Bispecific VL-VH/CL-CH1 exchange mix and 2 µg/mL hANGPT2; isotype control in place of <Ang-2>mIgG1-Biotin, SA-PE (FL2-H)

Chain of UniProt O15123 (O15123 19-496 limits assumed): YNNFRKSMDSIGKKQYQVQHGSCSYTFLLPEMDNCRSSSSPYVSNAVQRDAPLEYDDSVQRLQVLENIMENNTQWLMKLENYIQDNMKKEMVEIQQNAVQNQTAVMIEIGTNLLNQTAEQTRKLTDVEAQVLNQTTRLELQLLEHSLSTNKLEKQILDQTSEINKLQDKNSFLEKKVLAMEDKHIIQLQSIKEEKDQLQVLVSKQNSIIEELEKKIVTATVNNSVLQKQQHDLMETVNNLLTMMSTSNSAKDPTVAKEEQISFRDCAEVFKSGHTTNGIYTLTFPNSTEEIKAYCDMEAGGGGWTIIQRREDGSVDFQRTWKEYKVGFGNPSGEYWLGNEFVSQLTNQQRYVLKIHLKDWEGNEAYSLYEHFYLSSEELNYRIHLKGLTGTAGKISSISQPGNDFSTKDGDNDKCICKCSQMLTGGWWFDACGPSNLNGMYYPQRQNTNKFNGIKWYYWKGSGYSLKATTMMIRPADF

## mIgG1-Biotin-Isotype control (antibody)
  Mean: 8.7
